# Residue numbers refer to the chain shown, from its start.
# T1: mouse LAG-3 protein with hFc tag (mLAG-3-hFc protein) (mouse; human, UniProt Q61790 24-442)
# T1 construct: Made in HEK293 cells; also called mouse LAG-3 extracellular domain protein; not shown: human IgG Fc fragment (hFc) of the pCpC vector
# T1 sequence: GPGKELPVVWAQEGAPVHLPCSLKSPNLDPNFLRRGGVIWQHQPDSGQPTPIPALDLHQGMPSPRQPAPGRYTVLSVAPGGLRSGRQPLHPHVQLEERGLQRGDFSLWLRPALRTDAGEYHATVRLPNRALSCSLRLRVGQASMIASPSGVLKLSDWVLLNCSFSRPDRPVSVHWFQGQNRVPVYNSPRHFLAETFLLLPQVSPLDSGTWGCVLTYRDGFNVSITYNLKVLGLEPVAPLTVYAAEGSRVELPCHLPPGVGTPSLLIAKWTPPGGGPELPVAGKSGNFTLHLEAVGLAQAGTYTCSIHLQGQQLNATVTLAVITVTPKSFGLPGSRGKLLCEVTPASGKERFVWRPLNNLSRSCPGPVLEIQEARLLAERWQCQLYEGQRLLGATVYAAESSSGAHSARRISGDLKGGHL
# T2: human LAG-3 (full length, on the cell surface) (human, UniProt P18627 23-525)
# T2 sequence: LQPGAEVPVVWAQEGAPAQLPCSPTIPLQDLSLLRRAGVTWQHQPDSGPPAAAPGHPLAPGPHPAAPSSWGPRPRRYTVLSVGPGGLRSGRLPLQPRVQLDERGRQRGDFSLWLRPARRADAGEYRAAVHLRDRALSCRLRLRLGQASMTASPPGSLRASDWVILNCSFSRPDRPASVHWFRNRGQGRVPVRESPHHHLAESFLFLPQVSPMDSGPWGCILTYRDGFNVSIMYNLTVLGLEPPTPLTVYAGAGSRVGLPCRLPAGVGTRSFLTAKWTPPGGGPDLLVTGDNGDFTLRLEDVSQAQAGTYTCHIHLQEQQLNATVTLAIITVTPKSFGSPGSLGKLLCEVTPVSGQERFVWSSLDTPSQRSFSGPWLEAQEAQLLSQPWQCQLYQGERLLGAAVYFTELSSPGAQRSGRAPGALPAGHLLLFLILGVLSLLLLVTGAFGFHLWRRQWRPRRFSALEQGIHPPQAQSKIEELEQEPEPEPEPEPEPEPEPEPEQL
# T3: monkey LAG-3 (full length, on the cell surface) (monkey, UniProt P18627 24-525 (human entry))
# T3 construct: also called HEK293-cLAG-3; monkey LAG-3 protein on the cell surface
# T3 chain: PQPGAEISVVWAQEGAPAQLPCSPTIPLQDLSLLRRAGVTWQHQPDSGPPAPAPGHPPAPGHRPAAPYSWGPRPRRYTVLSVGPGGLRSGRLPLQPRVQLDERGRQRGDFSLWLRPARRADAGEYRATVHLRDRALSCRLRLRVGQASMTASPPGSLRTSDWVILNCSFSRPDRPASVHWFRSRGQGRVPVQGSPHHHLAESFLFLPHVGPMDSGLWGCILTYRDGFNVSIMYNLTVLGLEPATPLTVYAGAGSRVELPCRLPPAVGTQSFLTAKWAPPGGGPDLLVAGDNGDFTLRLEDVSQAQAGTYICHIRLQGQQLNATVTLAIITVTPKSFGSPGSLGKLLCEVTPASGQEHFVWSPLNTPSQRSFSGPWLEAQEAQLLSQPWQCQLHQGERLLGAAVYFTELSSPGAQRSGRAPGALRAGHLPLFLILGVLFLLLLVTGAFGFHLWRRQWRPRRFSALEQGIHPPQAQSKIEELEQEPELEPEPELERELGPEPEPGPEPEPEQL
# B1: 556F6B8 (LAG-3 mouse-human chimeric antibody) (antibody, V domains shown)
# VH: RVQLKQSGPGLVQPSQSLSITCTVSGFSLIKYGVHWVRQSPGEGLEWLGVIWRGGITDYNAAFMSRLSITKDNSKSQVFFKMNSLQADDTAIYYCAKWDGPLAMDYWGQGTSVTVSS
# VL: DIVMTQSHKFLSTSVGDRVSITCKASQDVGTTVAWYQQKPGQSPKLLIYWASTRHTGVPDRFTGSGSGTDFTLTISNVQSEDLADYFCQQYSSYPYTFGGGTKLEIK
# notes: also called 556F8B8
# B2: 405B8H3 (LAG-3 mouse-human chimeric antibody) (antibody, V domains shown)
# VH: QVQLQQSGAELVRPGASVTLSCKASGYTFTDYEMHWVKQTPVHGLEWIGATDPETGNSAYNQKFKGKAIMTADKSSSTAYMELRSLTSEDSAVYYCISTGWNDWGQGTSLTVSS
# VL: DIKMTQSPSSMYASLGERVTITCKASQDINSYLSWFQQKPGKSPKTLIYRADRLLDGVPSRFSGSGSGQDYSLTISSLEYGDMGIYYCLQYDEFPYTFGGGTKLEIK
# notes: also called mouse-human chimeric antibody 405B8H3
# B3: 105F1E10 (LAG-3 mouse-human chimeric antibody) (antibody, V domains shown)
# VH: EVQLQQSGPELVKPGASVKMSCRASGYTFTDFKMHWMKQSHGKSLEWIGYIAPNNGGTAYNQKFRGKATLTVNESSNTAYMELRSLTSEDSAVYYCVDWDDVDYWGQGTTLTVSS
# VL: B2 VL with P40S, D52N, L55V, G81E, D92V, Y96L, G100A, I106L
# B4: 409B11E12 (LAG-3 mouse-human chimeric antibody) (antibody, V domains shown)
# VH: B2 VH with P41T, G56S, N57Y, M70L, S98A
# VL: B2 VL with I2L, D52N, G81E
# B5: 409D4E10 (LAG-3 mouse-human chimeric antibody) (antibody, V domains shown)
# VH: B2 VH with Y27N, G56D, S58T, M70L, A72T, S98T, T99S
# VL: B2 VL with D52N, G81E, D92N
# B6: 556F6B8 (mouse antibody purified from hybridoma) (antibody, V domains shown)
# VH: B1 VH
# VL: B1 VL
# notes: also called mAb123-556F6B8
# B7: 405B8H3 (mouse antibody purified from hybridoma) (antibody, V domains shown)
# VH: B2 VH
# VL: B2 VL
# notes: also called mAb103-405B8H3; 405B81-13
# B8: 409B11E12 (mouse antibody purified from hybridoma) (antibody, V domains shown)
# VH: B2 VH with P41T, G56S, N57Y, M70L, S98A
# VL: B2 VL with I2L, D52N, G81E
# notes: also called mAb104-409B11E12
# B9: 409D4E10 (mouse antibody purified from hybridoma) (antibody, V domains shown)
# VH: B2 VH with Y27N, G56D, S58T, M70L, A72T, S98T, T99S
# VL: B2 VL with D52N, G81E, D92N
# notes: also called mAb112-409D4E10
# B10: 105F1E10 (mouse antibody purified from hybridoma) (antibody, V domains shown)
# VH: B3 VH
# VL: B2 VL with P40S, D52N, L55V, G81E, D92V, Y96L, G100A, I106L
# notes: also called mAb009-105F1E10
# Biological target: T1, mouse LAG-3 protein with hFc tag …
# Assay: ELISA, mLAG-3-hFc coated
# Method: (§1) The plate was sealed with plastic film and incubated overnight at 4° C. The plate was washed 2 times with the plate washing solution (PBS+0.01% Tween20) on the next day, and added with the blocking solution (PBS+0.01% Tween20+1% BSA) and blocked at room temperature for 1-2 hours. The blocking solution was poured out, and the plate was added with 50-100 μl of the antibody sample to be tested to each well, incubated at 37° C. for 1-2 hours, and washed 2-3 times with a plate washing solution (PBS+0.01% Tween20). HRP (horseradish peroxidase) labeled secondary antibody was added, and the plate was incubated at 37° C. for 1-2 hours, and washed 2-3 times with a plate washing solution (PBS+0.01% Tween20). 100 μl of TMB substrate was added to each well. After incubated at room temperature for 15-30 minutes, the plate was added with 100 μl of stop solution (1.0N HCl) to each well.
row,Binder,binding result
1,B1,no binding (tested: 66.6670 nM)
2,B2,no binding (tested: 66.6670 nM)
3,B3,no binding (tested: 66.6670 nM)
4,B4,no binding (tested: 66.6670 nM)
5,B5,no binding (tested: 66.6670 nM)

# Biological target: T2, human LAG-3 (full length, on the cell …)
# Assay: cell-based or functional assay
Binder,"mIL-2 (pg/mL), antigen-specific T lymphocyte stimulation test; antibody 0.016 ug/mL","mIL-2 (pg/mL), antigen-specific T lymphocyte stimulation test; antibody 0.08 ug/mL","mIL-2 (pg/mL), antigen-specific T lymphocyte stimulation test; antibody 2 ug/mL","mIL-2 (pg/mL), antigen-specific T lymphocyte stimulation test; antibody 4 ug/mL (so in the source)","mIL-2 (pg/mL), antigen-specific T lymphocyte stimulation test; antibody 10 ug/mL"
B6,88.3 pg/mL,141 pg/mL,270 pg/mL,214 pg/mL,255 pg/mL
B7,205 pg/mL,204 pg/mL,435 pg/mL,392 pg/mL,441 pg/mL
B8,187 pg/mL,183 pg/mL,376 pg/mL,374 pg/mL,364 pg/mL
B9,172 pg/mL,175 pg/mL,346 pg/mL,261 pg/mL,335 pg/mL

# Biological target: T3, monkey LAG-3 (full length, on the cell …)
# Assay: FACS, HEK293-cLAG-3; 8.000 nM
# From the text: (§2) The pIRES plasmid with the monkey-derived full-length gene was transfected into the HEK293 cell line to construct a HEK293 stable cell line containing monkey LAG-3 (herein referred to as HEK293-cLAG-3 stable cell line). The HEK293-hLAG-3 stable cell line and HEK293-cLAG-3 stable cell line were expanded in a T-75 cell culture flask to a 90% confluence. The medium was aspirated, and the cells were washed with HBSS (Hanks' Balanced Salt Solution) 1-2 times, then treated with a enzyme-free cell dissociation fluid (Versene solution: Life technology) and the cells were collected. The cells were washed with HBSS buffer for 1-2 times. After counted, the cells were diluted with HBSS to 1-2×10⁶ cells per ml, added with 1% goat serum blocking solution, incubated on ice for 20-30 minutes, and then washed with HBSS for 2 times by centrifugation. The collected cells were suspended in the FACS buffer (HBSS+1% BSA) to 2×10⁶ cells/ml, added as 100 microliters per well to a 96-well FACS reaction plate, added with 100 microliters per well of the antibody sample to be tested, incubated on ice for 1-2 hours. The plate was washed twice with the FACS buffer by centrifugation, added with 100 microliters of fluorescent (Alexa 488)-labeled secondary antibodies per well, and incubated on ice for 0.5-1.0 hours. The plate was washed 2-3 times with FACS buffer by centrifugation, added with 100 μl fixative solution (4% Paraformaldehyde) per well to suspend the cells. 5-10 minutes later, it was washed 1-2 times with FACS buffer by centrifugation. The cells were suspended with 100 microliters of FACS buffer, FACS (FACSCalibur, BD) was used for detection and the results were analyzed.
row,Binder,Mean fluorescence intensity
1,B6,46.7 MFI
2,B7,61.4 MFI
3,B10,44.6 MFI
4,B8,69.9 MFI
5,B9,93.8 MFI

# Biological target: T3, monkey LAG-3 (full length, on the cell …)
# Assay: FACS, HEK293-cLAG-3; 40.000 nM
# From the text: as §2
row,Binder,Mean fluorescence intensity
1,B6,51 MFI
2,B7,108 MFI
3,B10,87 MFI
4,B8,102 MFI
5,B9,130 MFI

# Biological target: T1, mouse LAG-3 protein with hFc tag …
# Assay: ELISA, mLAG-3-hFc coated; 0.0000 nM
# Method: as §1
row,Binder,OD450
1,B1,0.09 OD450
2,B2,0.1 OD450
3,B3,0.08 OD450
4,B4,0.08 OD450
5,B5,0.09 OD450

# Reference: patent US20210155689A1 (SHANGHAI PHARMAEXPLORER, published 2021)
